Bridge positions count the residues as written; N and C are the ends. Ends that are not written are not given here.
Target: T1, human collagen type I (acid soluble, extracted from placenta, Sigma C7774) (human, UniProt P02452 162-1218; P08123 80-1119)
T1 construct: gelled and dried as a fibril film in the assay; also called dried human collagen; h-Collagen
Experiment: dried collagen assay
Protocol: An additional 90 μL is reserved in a HPLC glass vial as a measure of the total concentration.

T1 sequence (P02452 162-1218 limits assumed, chain 1 of 2): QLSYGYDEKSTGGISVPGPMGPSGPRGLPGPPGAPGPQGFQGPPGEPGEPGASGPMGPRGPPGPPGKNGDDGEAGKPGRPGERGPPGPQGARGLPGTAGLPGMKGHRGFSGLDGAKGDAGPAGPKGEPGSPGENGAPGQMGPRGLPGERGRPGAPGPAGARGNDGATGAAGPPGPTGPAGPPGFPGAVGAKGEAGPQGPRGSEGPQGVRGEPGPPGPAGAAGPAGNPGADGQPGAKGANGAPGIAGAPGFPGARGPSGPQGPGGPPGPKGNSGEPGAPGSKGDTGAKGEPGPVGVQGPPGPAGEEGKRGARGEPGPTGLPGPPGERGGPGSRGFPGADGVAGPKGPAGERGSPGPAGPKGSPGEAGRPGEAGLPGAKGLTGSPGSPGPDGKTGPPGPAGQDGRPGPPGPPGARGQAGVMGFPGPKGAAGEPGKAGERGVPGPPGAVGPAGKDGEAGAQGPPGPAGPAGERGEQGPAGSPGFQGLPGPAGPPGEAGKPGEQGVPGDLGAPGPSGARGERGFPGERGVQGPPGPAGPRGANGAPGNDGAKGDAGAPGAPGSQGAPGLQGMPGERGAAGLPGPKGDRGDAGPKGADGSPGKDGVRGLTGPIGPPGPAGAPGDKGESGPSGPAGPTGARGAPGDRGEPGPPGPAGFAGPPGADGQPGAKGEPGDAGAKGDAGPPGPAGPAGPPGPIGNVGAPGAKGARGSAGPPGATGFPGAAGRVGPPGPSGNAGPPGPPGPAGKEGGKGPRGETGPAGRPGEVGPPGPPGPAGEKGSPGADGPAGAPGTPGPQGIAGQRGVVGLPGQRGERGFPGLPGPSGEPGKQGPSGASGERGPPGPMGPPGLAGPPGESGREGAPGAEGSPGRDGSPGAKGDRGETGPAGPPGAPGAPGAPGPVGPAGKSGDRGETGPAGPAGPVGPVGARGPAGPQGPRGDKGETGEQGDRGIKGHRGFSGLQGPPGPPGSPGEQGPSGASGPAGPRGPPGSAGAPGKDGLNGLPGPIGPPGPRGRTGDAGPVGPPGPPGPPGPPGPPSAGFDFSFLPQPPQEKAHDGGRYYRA
T1 sequence (P08123 80-1119 limits assumed, chain 2 of 2): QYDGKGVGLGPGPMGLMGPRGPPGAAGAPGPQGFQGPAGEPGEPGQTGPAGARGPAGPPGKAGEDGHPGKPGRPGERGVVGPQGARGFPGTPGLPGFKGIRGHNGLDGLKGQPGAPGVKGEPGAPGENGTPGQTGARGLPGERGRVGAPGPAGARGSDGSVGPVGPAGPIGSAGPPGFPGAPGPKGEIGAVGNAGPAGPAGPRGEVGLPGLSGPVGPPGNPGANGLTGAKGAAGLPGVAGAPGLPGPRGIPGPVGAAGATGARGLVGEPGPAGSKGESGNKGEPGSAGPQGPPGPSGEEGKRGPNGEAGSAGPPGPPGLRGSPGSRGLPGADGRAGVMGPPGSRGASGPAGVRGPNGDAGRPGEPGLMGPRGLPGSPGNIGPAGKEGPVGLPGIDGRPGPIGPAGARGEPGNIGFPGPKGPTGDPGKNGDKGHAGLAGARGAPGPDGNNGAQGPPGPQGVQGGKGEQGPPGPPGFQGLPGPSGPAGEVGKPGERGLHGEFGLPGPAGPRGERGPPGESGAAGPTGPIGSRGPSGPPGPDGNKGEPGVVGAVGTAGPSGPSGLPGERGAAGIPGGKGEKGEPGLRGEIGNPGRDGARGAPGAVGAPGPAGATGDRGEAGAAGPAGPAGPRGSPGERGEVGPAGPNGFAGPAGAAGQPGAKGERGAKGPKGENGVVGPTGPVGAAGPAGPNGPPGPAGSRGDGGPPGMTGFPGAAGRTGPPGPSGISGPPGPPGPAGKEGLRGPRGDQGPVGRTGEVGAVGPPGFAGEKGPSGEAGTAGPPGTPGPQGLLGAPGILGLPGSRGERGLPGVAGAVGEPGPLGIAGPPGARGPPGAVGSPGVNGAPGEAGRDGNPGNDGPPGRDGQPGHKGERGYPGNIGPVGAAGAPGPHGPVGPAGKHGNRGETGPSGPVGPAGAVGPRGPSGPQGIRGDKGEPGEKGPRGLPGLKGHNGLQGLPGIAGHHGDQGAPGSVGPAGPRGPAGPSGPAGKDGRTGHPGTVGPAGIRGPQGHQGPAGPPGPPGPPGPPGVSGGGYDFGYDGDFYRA

Row | Binder | % bound [%]
1 | EWHCVFIQGDWLCNSG (disulfide 4-13 (inferred)) [SEQ ID NO: 72] | 1
2 | RWTCDLQRGDWQCSTI (disulfide 4-13 (inferred)) [SEQ ID NO: 57] | 11
3 | FWRCALLDGHWQCTDH (disulfide 4-13 (inferred)) [SEQ ID NO: 70] | 3
4 | SWNCHMIRNEWRCTGH (disulfide 4-13 (inferred)) [SEQ ID NO: 56] | 11
5 | FGACDIFPTFHTCPGV (disulfide 4-13 (inferred)) [SEQ ID NO: 76] | 1
6 | HWSCYLGDNGWNCHDR (disulfide 4-13 (inferred)) [SEQ ID NO: 62] | 9
7 | MWNCTMTKSGWRCFEK (disulfide 4-13 (inferred)) [SEQ ID NO: 54] | 12
8 | EWHCVLNDFRWTCGGD (disulfide 4-13 (inferred)) [SEQ ID NO: 60] | 10
9 | SWNCHWRNQGWLCSGG (disulfide 4-13 (inferred)) [SEQ ID NO: 55] | 12
10 | LWTCSMDRNYDWVCGEK (disulfide 4-14 (inferred)) [SEQ ID NO: 82] | 3
11 | GWTCSQPGANVWNCTMQ (disulfide 4-14 (inferred)) [SEQ ID NO: 85] | 3
12 | KWSCYMVDHQWYCREF (disulfide 4-13 (inferred)) [SEQ ID NO: 61] | 9
13 | GWVCMMRETDWNCSI (disulfide 4-13 (inferred)) [SEQ ID NO: 58] | 10
14 | HWSCDLAMDNEWFCSTK (disulfide 4-14 (inferred)) [SEQ ID NO: 84] | 3
15 | NWYCSQALDNWSCKLR (disulfide 4-13 (inferred)) [SEQ ID NO: 63] | 8
16 | SWHCALMGSRWVCGQN (disulfide 4-13 (inferred)) [SEQ ID NO: 71] | 3
17 | QWFCEMDEYGKWNCGMM (disulfide 4-14 (inferred)) [SEQ ID NO: 81] | 3
18 | TWICSHNDKGWTCGDQ (disulfide 4-13 (inferred)) [SEQ ID NO: 64] | 8
19 | GWACNTTSKGDWECTNL (disulfide 4-14 (inferred)) [SEQ ID NO: 83] | 3
20 | HWQCGEKMSFWSCELV (disulfide 4-13 (inferred)) [SEQ ID NO: 69] | 3
21 | GWFCKLVDGNWECSTK (disulfide 4-13 (inferred)) [SEQ ID NO: 53] | 12
22 | HWQCRLTDYGWNCDER (disulfide 4-13 (inferred)) [SEQ ID NO: 59] | 10
23 | SWHCALVENSWQCSEA (disulfide 4-13 (inferred)) [SEQ ID NO: 73] | 1

Source: US20070293656A1, “COLLAGEN BINDING PEPTIDES” (Epix Pharmaceuticals, Inc., priority 2005, published 2007)
